Biological target: JNK kinase/SEK-1 (endogenous, Swiss 3T3 cells) (UniProt P47809)
Assay: cell-based or functional assay

Sequence of JNK kinase/SEK-1 (endogenous, Swiss 3T3 cells) (P47809 2-397 limits assumed): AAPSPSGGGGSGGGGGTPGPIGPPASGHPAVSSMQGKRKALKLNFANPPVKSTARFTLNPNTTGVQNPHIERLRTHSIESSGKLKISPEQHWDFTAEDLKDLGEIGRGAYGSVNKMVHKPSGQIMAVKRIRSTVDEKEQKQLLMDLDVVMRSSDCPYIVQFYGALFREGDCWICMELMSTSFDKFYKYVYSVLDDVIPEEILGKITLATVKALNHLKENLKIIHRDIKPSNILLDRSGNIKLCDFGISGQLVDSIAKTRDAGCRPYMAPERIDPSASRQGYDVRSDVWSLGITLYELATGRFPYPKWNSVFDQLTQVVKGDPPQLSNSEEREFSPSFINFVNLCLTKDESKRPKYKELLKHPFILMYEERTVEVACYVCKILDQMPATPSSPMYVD

competitive inhibitory JNK/SAPK mutant JNK/SAPK(APF)
inhibition of Gal4/Jun activation in response to MEKKCOOH (luciferase reporter, transient transfection): 65%

Source: patent publication US20020055130A1, “Method and product for regulating apoptosis” (National Jewish Center for Immunology and Respiratory …, priority 1997, published 2002)
